These results are taken from article PMC6486635, “IMP1 KH1 and KH2 domains create a structural platform with unique RNA recognition and re-modelling properties”.

Series [1] has as its target T1, IMP1 KH1KH2DD (Homo sapiens, UniProt Q9NZI8 194-369, K294D;E295D). The experiment in a line: ITC; 10 mM sodium phosphate pH 7.4, 50 mM NaCl; ITC 25 C with 2 mM TCEP; BLI 30 C with 0.5 mM TCEP and 0.5 mg/ml BSA; NMR 0.5 mM TCEP; RNAsin 40-100 u/ml. To be noted: protein: recombinant; tags: 6xHis-GST removed by TEV. (In ITC the heat of successive injections is recorded.)

The next series addresses IMP1 KH1DDKH2 (Homo sapiens, UniProt Q9NZI8 194-369, K213D;E214D). The series is described as above. To be noted: protein: recombinant; tags: 6xHis-GST removed by TEV.
The target of series [2] is T1, IMP1 KH1KH2DD. Put plainly: BLI; 10 mM sodium phosphate pH 7.4, 50 mM NaCl; ITC 25 C with 2 mM TCEP; BLI 30 C with 0.5 mM TCEP and 0.5 mg/ml BSA; NMR 0.5 mM TCEP; RNAsin 40-100 u/ml. To be noted: protein: recombinant; tags: 6xHis-GST removed by TEV; label: 5'-biotin. (In general: In BLI a coated tip is dipped into the sample, and binding shifts an interference pattern.)

A further series concerns the target IMP1 KH1KH2 wild type (Homo sapiens, UniProt Q9NZI8 194-369). The series is described as above. The following applies: protein: recombinant; tags: 6xHis-GST removed by TEV; label: 5'-biotin.

T1 sequence (Q9NZI8 194-369 K294D/E295D): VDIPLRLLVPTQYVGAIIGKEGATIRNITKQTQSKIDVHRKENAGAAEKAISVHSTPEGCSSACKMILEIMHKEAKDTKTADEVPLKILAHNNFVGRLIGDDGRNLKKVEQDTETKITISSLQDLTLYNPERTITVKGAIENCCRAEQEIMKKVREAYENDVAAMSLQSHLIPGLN
Chain of IMP1 KH1DDKH2 (Q9NZI8 194-369 K213D/E214D): as the sequence (Q9NZI8 194-369 K294D/E295D) above, with K20D, E21D, D101K, D102E counted along it
Chain of IMP1 KH1KH2 wild type (Q9NZI8 194-369): as the sequence (Q9NZI8 194-369 K294D/E295D) above, with D101K, D102E counted along it

The term Kd denotes the constant that tells how readily two partners part at equilibrium. For UGCGU (ssRNA), in the series with IMP1 KH1KH2DD [1], the Kd amounted to 26000 ± 2000 nM.

As to UUCGU (ssRNA), the Kd with IMP1 KH1KH2DD [1] was 25000 ± 2000 nM.

As for UCCCG (ssRNA), the Kd with IMP1 KH1DDKH2 turned out to be 100000 ± 4000 nM.

As for UCUGU (ssRNA), in the series with IMP1 KH1KH2DD [1], the Kd is 2600 ± 80 nM.

On to UACGU (ssRNA), for which, in the series with IMP1 KH1KH2DD [1], the Kd is 25000 ± 1000 nM.

CACAGCAUACAUCCUGUCCGUC (ssRNA) [MYCRNA]: the Kd is 1760 ± 200 nM with IMP1 KH1KH2DD [2] and 46 ± 8 nM with IMP1 KH1KH2 wild type.

On to UCCGU (ssRNA), for which, in the series with IMP1 KH1KH2DD [1], the Kd was determined as 500 ± 10 nM.

On to UCCGC (ssRNA), for which, in the series with IMP1 KH1KH2DD [1], the Kd worked out at 800 ± 40 nM.

Consider UUCCG (ssRNA), for which the Kd with IMP1 KH1DDKH2 turned out to be 124000 ± 15000 nM.

Consider UCCCU (ssRNA), for which the binding result with IMP1 KH1KH2DD [1] is “no binding”.

As to UCAGU (ssRNA), the Kd with IMP1 KH1KH2DD [1] is 1000 ± 30 nM.
